Measured values: patent US20180002381A1 (HONG KONG POLYTECHNIC UNIVERSITY, published 2018)
Residue numbers refer to the chain shown, from its start. Names and notes keep the numbering of the source. No end group written: not given here.

B1: UVRAG (228-298) (other)
chain: TSNELKKESESLRLKILVLRNELERQKKALGREVAFLHKQQMALQDKGSAFSTEHGKLQLQKDSLSELRKE
B2: UVRAG 2E (L246E/L250E), coiled coil domain as used in ITC (other)
chain: B1 chain with S11C, L19E, L23E
B3: UVRAG 5E (L232E/L239E/L246E/L250E/L264E), coiled coil domain as used in ITC (other)
chain: B1 chain with L5E, S11C, L12E, L19E, L23E, L37E
B4: UVRAG 6E (L232E/L239E/L246E/L250E/L264E/L271E), coiled coil domain as used in ITC (other)
chain: B1 chain with L5E, S11C, L12E, L19E, L23E, L37E, L44E
B5: Coiled coil domain of UVRAG (228-276) (other)
chain: TSNELKKESESLRLKILVLRNELERQKKALGREVAFLHKQQMALQDKG
notes: They have S at position 238 where the full-length entries have C; also called UVRAG coiled coil domain; UVRAG coiled coil
B6: Monomeric form of Beclin1 coiled coil domain with L182A mutation (other)
chain: DSEQLQREAKELALEEERLIQELEDVEKNRKVVAENLEKVQAEAERLDQEEAQYQREYSEFKRQQLELDDELKSVENQMRYAQMQLDKLKKTN
notes: The entry already carries L182A
B7: FLAG-tagged full length Mus musculus UVRAG wild type (other, not shown: small tags and cut ends)
chain: MSSCASLGGPVPLPPPGPSAALTSGAPARALHVELPSQQRRLRHLRNIAARNIVNRNGHQLLDTYFTLHLCDNEKIFKEFYRSEVIKNSLNPTWRSLDFGIMPDRLDTSVSCFVVKIWGGKEEAFQLLIEWKVYLDGLKYLGQQIHARNQNEIIFGLNDGYYGAPCEHKGHPNAQKNLLQVDQNCVRNSYDVFSLLRLHRAQCAIKQTQVTVQRLGKEIEEKLRLTSTSNELKKESECLRLKILVLRNELERQKKALGREVAFLHKQQMALQDKGSAFSTEHGKLQLQKDSLSELRKECTAKRELFLKTNAQLTIRCRQLLSELSYIYPIDLNEHKDYFVCGVKLPNSEDFQAKEDGSIAVALGYTAHLVSMISFFLQVPLRYPIIHKGSRSTIKDNINDKLTEKEREFPLYPKGGEKLQFDYGVYLLNKNIAQLRYQHGLGTPDLRQTLPNLKNFMEHGLMVRCDRHHISNAIPVPKRQSSTFGGADGGFSAGIPSPDKVHRKRASSENERLQYKTPPPSYNSALTQPGVAMPTSGDSERKVAPLSSSLDTSLDFSKENKKAGVDLGSSVSGDHGNSDSGQEQGEALPGHLAAVNGTALPSEQAGPAGTLLPGSCHPAPSAELCCAVEQAEEIIGLEATGFTSGDQLEALSCIPVDSAVAVECDEQVLGEFEEFSRRIYALSENVSSFRRPRRSSDK
B8: FLAG-tagged full length Mus musculus UVRAG 2E (L246E/L250E) (other, not shown: small tags and cut ends)
chain: B7 chain with L246E, L250E
B9: FLAG-tagged full length Mus musculus UVRAG 1E (L246E) (other, not shown: small tags and cut ends)
chain: B7 chain with L246E
B10: Beclin 1 coiled coil 3 (CC3) (other)
chain: RKVVAENLEKVQAEAERLDQEEAQYQREYSEFKRQQLELDDELKSVENQ
notes: 7 heptad repeats of the Beclin1 coiled coil domain
B11: Beclin 1 coiled coil 4 (CC4) (other)
chain: AERLDQEEAQYQREYSEFKRQQLELDDELKSVENQMRYAQMQADKLKKTN
notes: as for B10
B12: Beclin 1 coiled coil 2 (CC2) (other)
chain: EERLIQELEDVEKNRKVVAENLEKVQAEAERLDQEEAQYQREYSEFKRQ
notes: as for B10

Tests used:
[1] = molecular target: B6; experiment: ITC
[2] = molecular target: T1, Beclin1 coiled coil domain (wild type) (rat, UniProt Q91XJ1 174-266); experiment: isothermal titration calorimetry, wild type Beclin1 coiled coil domain and UVRAG (228-298)
T1 construct: residues 175-266; it pairs 1:1 with UVRAG; also called CC; entire Beclin1 coiled coil domain
Target sequence in this assay (Q91XJ1 174-266 limits assumed): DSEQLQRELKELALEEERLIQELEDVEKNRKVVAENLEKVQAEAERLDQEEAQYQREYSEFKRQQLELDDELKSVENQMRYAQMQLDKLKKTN

[3] = molecular target: T1, Beclin1 coiled coil domain (wild type); experiment: ITC
[4] = molecular target: B5; experiment: isothermal titration calorimetry, Beclin 1 construct against UVRAG coiled coil domain
[5] = molecular target: T1, Beclin1 coiled coil domain (wild type); experiment: ITC; remark: listed apart in the source
UVRAG (228-298) = molecular target: B1; experiment: isothermal titration calorimetry, monomeric Beclin1 coiled coil domain (L182A) and UVRAG (228-298)
endogenous Beclin1 = endogenous Beclin1 (UniProt Q14457 1-450); experiment: cell-based or functional assay
endogenous Beclin1, sequence (Q14457 whole entry): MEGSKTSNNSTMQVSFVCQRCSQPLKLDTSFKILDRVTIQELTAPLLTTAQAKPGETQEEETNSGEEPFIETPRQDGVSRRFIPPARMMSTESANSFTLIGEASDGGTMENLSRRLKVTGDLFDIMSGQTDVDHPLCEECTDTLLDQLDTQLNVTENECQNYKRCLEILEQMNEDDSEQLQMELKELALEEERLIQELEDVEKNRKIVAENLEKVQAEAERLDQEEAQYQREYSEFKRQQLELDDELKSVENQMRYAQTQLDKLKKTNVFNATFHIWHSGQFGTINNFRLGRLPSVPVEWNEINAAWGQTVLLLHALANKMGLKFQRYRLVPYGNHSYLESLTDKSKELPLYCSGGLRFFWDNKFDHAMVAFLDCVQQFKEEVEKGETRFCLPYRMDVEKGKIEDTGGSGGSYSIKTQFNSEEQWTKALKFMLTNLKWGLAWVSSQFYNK

B1
binding result [1]: binds
Kd [2]: ~0.24 µM

B2
binding result [3]: no binding

B3
binding result [3]: no binding

B4
binding result [3]: no binding

DSEQAQRELKELALEEERLIQELEDVEKNRKVVAENLEKVQAEAERLDQE (other, not fully specified) [Beclin 1 coiled coil 1 (CC1), residues 174-223]
Kd [4]: 8.9 µM

B5
Kd [5]: ~0.24 µM

B6
Kd (UVRAG (228-298)): ~0.07 µM

B7
EGFR remaining after 5 hours in A549 cells (endogenous Beclin1): < 10%
half-life of EGFR in A549 cells (endogenous Beclin1): ~2 h

B8
EGFR remaining after 5 hours in A549 cells (endogenous Beclin1): ~5%

B9
EGFR remaining after 5 hours in A549 cells (endogenous Beclin1): < 10%
half-life of EGFR in A549 cells (endogenous Beclin1): ~2 h

B10
Kd [4]: 671 µM

B11
Kd [4]: 157 µM

B12
Kd [4]: 139 µM
